B1: Flag RbAp46 (Xenopus, recombinant) (protein)
chain: MANKEMFEDTVEERVINEEYKIWKKNTPFLYDLVMTHALEWPSLTVQWLPDVTRPEGKDYALHWLVLGTHTSDEQNHLVVARVQVPNDDAQFDASHYDSEKGEFGGFGSVSGKIETEIKINHEGEVNRARYMPQNPCIIATKTPSADVLVFDYTKHPSKPDPSGECSPDLRLRGHQKEGYGLSWNSNLSGHLLSASDDHTVCLWDISAGPKEGKVVDAKAVFTGHSAVVEDVAWHLLHESLFGSVADDQKLMIWDTRSNTTSKPSHSVDAHTAEVNCLSFNPYSEFILATGSADKTVALWDLRNLKLKLHSFESHKDEIFQVHWSPHNETILASSGTDRRLNVWDLSKIGEEQSAEDAEDGPPELLFIHGGHTAKISDFSWNPNEPWVICSVSEDNIMQIWQMAENIYNDEEPDIPASELEAQGS
B2: Flag Hat1 (Xenopus, recombinant) (protein)
chain: MEKKLAEYKCNTNEAIQLKLVRFPEDIEDESMTFNPEYSHQIFGDEEVAFGYKGLKILLYYSAGNLSTMFRVQYSSKVNDKFDLVQPDDVENKIHELIPAGFCSGTDDFITLLEKEVNFKPFGTIVHTYTVHNEDAGEDISYQIYKADMTSPGFREYHERLQTFMMWFIETASYIDVDDEKWDYFLVFEKYNKDGATLFATVGYMTVYNYYVYPDKTRPRVSQMLVLPPFQGEGHGAQLMETVHRYYVSAPNILDITAEDPSENFVRLRDFVLVKLCQNLPCFSPEKLLCGFSKEMVTEAQEKLKINKKHARRVYEILRLRATDMSDPEKSKAYRLDVKKRLVGPYKKNQREMAKMQQCLRPEELTNQMNQIDLNTQHEQLEESYQQLVEEYRRIVERLAQA

Tests used:
[1] = target: T1, GST fusion to Xenopus laevis CENP-A amino terminus (amino acids 1–50) (Xenopus laevis (African clawed frog), UniProt Q569M3); test: GST-tail resin pull-down, Coomassie
T1 chain: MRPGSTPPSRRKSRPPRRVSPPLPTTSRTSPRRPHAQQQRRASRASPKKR

[2] = target: Flag RbAp46 (Xenopus, recombinant) (Xenopus laevis (African clawed frog), UniProt Q8AVH1); test: GST-CENP-A tail resin pull-down (bridged), Coomassie; inferred from RbAp46-dependent recovery of Hat1 on the immobilized GST-CENP-A N-terminal tail (1-50); no direct two-protein test

Row | Binder | binding result [1] | binding result [2]
1 | B1 | binds | 
2 | B2 |  | binds
